Values quoted from earlier work as cited in publication PMC9008539.

Molecular target: PfRh5 (Plasmodium falciparum) (UniProt Q8IFM5)
Sequence (Q8IFM5 25-526): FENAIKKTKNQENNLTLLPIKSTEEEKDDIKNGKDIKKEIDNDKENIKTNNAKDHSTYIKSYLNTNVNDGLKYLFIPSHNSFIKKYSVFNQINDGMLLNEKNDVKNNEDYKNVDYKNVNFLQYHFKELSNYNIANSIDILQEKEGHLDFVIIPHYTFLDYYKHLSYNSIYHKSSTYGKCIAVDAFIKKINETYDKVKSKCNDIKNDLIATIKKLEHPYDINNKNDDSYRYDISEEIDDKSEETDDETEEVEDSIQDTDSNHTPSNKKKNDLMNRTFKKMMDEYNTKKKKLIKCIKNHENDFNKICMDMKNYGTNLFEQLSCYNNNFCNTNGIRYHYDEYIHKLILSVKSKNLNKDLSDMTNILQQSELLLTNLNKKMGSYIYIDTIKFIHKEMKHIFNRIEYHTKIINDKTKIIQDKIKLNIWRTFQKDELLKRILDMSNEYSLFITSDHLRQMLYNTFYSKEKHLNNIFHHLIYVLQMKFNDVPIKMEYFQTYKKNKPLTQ

Substance: PfRipr (from UniProt O97302)
- Kd: 480 pM
